Data on one molecule can be found in patent publication US20250115677A1, “Anti-CEA Antibody Drug Conjugates and Methods of Use” (BeiGene Switzerland GmbH, priority 2022, published 2025).

Experiment [1] addresses T1, human CEA on cells (MKN45, LOVO, NCI-H2122, LS174T, CT26/CEA) (human, UniProt P06731 35-685).
T1 construct: Full-length human CEA, endogenous on tumour cell lines or transduced; also called native CEA on living cells; huCEA surface protein
T1 sequence: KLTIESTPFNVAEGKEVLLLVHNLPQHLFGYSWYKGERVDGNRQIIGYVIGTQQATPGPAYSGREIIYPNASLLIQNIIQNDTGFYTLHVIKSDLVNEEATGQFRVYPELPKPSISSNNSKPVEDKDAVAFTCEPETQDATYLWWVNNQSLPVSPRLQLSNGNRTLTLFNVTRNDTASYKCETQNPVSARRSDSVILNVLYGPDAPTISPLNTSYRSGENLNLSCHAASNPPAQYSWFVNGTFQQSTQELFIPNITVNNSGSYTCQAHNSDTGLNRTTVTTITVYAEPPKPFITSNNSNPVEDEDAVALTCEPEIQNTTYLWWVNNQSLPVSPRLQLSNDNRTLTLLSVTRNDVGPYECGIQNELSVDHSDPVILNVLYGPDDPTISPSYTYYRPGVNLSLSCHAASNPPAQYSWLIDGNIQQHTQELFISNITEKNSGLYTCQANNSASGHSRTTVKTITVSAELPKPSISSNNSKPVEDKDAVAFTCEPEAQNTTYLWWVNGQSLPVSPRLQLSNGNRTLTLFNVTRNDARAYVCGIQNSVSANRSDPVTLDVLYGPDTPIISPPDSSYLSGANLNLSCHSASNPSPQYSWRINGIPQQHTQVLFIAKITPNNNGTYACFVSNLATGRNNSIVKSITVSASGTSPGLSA
Nature of the experiment: flow cytometry (MFI) on CEA-expressing MKN45 cells. How it is done: For flow cytometry, CEA-expressing MKN45 cells (10^5 cells/well) were incubated with various concentrations of purified affinity-matured antibodies, followed by binding with Alexa Fluor-647-labeled anti-hu IgG Fc antibody (Cat. No. 409320, BioLegend, USA). Cell fluorescence was quantified using a flow cytometer (Guava easyCyte™ 8HT, Merck-Millipore, USA).
(In general: Flow cytometry measures light scatter and fluorescence of single cells or particles in a stream.)

The target in experiment [2] is T2, CEACAM1 (Cat. No. 10822-H08H, Sino Biological) (Homo sapiens (Human), UniProt P13688 35-428).
T2 construct: Bought protein
T2 sequence: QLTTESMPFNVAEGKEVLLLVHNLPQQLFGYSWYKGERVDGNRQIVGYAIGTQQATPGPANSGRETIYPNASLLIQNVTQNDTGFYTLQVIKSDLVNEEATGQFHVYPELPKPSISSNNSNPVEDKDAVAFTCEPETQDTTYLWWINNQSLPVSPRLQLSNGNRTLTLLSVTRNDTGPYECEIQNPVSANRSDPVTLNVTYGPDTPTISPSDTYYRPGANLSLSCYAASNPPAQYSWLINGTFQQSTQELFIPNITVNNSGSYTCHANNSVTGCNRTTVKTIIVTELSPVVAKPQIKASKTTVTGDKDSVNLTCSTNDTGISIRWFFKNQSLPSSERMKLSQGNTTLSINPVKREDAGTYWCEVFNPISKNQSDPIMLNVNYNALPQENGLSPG
Nature of the experiment: antigen ELISA, antigen coated at 10 ug/ml, HRP anti-human Fc. How it is done: (§1) Cell fluorescence was quantified using a flow cytometer (Guava easyCyte™ 8HT, Merck-Millipore, USA). For antigen ELISA, CEACAM1(SEQ ID NO:64) (Cat. No. 10822-H08H, Sino Biological, China), CHIM (SEQ ID NO:63), CEA (SEQ ID NO:55) or CEACAM6 (SEQ ID NO:57) were coated in 96-well plates at a concentration of 10 μg/ml overnight at 4° C.
On the technique in general: In an ELISA, binding on a coated surface is turned into a signal by an enzyme label.

Experiment [3] addresses T3, recombinant human CEACAM6 (AA 1-320, C-terminal 6xHis) (human, UniProt P40199 35-320).
T3 sequence: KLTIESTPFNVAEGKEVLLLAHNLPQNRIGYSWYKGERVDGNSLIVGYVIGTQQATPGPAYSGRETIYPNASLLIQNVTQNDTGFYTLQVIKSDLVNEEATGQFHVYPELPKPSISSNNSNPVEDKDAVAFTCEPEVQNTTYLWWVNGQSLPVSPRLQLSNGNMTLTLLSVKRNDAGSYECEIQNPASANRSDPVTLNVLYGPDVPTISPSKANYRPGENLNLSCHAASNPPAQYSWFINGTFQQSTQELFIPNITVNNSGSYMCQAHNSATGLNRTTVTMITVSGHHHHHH
The description is as above. The procedure:
as §1

Experiment [4] concerns the target T1, human CEA on cells (MKN45, LOVO, …). Nature of the experiment: flow cytometry on MKN45 cells, no soluble CEA, anti-huFc-APC. The procedure: (§2) The mixtures were then incubated with 2×10^5 CEA-expressing cells, such as MKN45 cells, for 30 minutes at 4° C. The cells were stained with secondary antibody anti-huFc-APC (Cat. No. 409320, BioLegend, USA) and analyzed by flow cytometry.

Experiment [5] has the same target. Nature of the experiment: flow cytometry on MKN45 cells, BGA5384 premixed with 0.50 ug/ml recombinant soluble CEA (competitor), anti-huFc-APC. The procedure: as §2
For experiment [6] the target is unchanged. Nature of the experiment: flow cytometry on MKN45 cells, BGA5384 premixed with 1.00 ug/ml recombinant soluble CEA (competitor), anti-huFc-APC. How it is done: as §2
Experiment [7] has the same target. Nature of the experiment: flow cytometry on MKN45 cells, BGA5384 premixed with 2.00 ug/ml recombinant soluble CEA (competitor), anti-huFc-APC. How it is done:
as §2

B1: BGA5384 (antibody, human IgG1, kappa, V domains shown)
VH: QVQLVQSGAEVKKPGASVKVSCKASGYIFTSYYLHWVRQAPGQGLEWIGYINPQTGKTSYAQKFQGRVTMTRDTSTSTVYMELSSLRSEDTAVYYCAREYGNYNYPLDYWGQGTLVTVSS
VL: DIQMTQSPSSLSASVGDRVTITCRASENQYGYLAWYQQKPGKVPKLLIYNYKNLVEGVPSRFSGSGSGTDFTLTISSLQPEDVATYYCQHHLGTPYTFGQGTKVEIKR
notes: BGA6710 with Y57K in VH; human IgG1 format; also called BGA7592-1K
Broadly, the EC50 is the concentration that produces a half-maximal response. The term EC50 (read off the curve) denotes the concentration needed to bring the measured effect to its halfway point. On to B1, for which, in experiment [1], a half-maximal effect (EC50) was put at 2.92 µg/mL. The binding result in experiment [2] and in experiment [3] was “no binding” throughout. Also, the “EC50 (read off the curve)” value in experiment [4] was about 0.7 µg/mL; in experiment [5], about 1 µg/mL; in experiment [6], about 2 µg/mL; in experiment [7], about 2 µg/mL.
